Experimental data from the supplement of paper PMC9112550, “Optimization of the antimicrobial peptide Bac7 by deep mutational scanning” (BMC Biology, 2022).

Tested on: Escherichia coli TOP10
Experiment: shrunken log2 fold change of peptide-encoding DNA abundance (4.5 h post-induction vs induction); higher = less antimicrobial activity (less host growth inhibition)
Conditions: time post-induction: 4.5 h; library: site-saturation at positions 5, 18, 19, 20
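Note: peptides expressed intracellularly from a pBAD plasmid library in pooled LB shake-flask culture, induced with 0.3% L-arabinose, DNA abundance read by NGS, three biological replicates, DESeq2 with apeglm shrinkage.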

Sequence | shrunken log2 fold change
RRIRFRPPRLPRPRPRPAMPPRP | 0.0356
RRIRWRPPRLPRPRPRPEMQPRP | 1.12
RRIRHRPPRLPRPRPRPGMNPRP | 0.00489
RRIRPRPPRLPRPRPRPFKIPRP | 0.0869
RRIRVRPPRLPRPRPRPQDTPRP | -0.64
RRIRRRPPRLPRPRPRPGHLPRP | 0.067
RRIRGRPPRLPRPRPRPMTFPRP | 0.536
RRIRCRPPRLPRPRPRPWEYPRP | 0.0155
RRIRERPPRLPRPRPRPYHLPRP | -0.0102
RRIRQRPPRLPRPRPRPPALPRP | -0.179
RRIRSRPPRLPRPRPRPEQTPRP | 0.709
RRIRKRPPRLPRPRPRPNSFPRP | -0.234
RRIRWRPPRLPRPRPRPLTEPRP | 0.251
RRIRERPPRLPRPRPRPQVRPRP | -0.0385
RRIRDRPPRLPRPRPRPIAYPRP | -0.114
RRIRERPPRLPRPRPRPDWHPRP | -0.12
RRIRNRPPRLPRPRPRPLAGPRP | 0.148
RRIRERPPRLPRPRPRPQCMPRP | -0.586
RRIRRRPPRLPRPRPRPETDPRP | -0.00744
RRIRVRPPRLPRPRPRPRVCPRP | 0.165
RRIRTRPPRLPRPRPRPHVDPRP | 0.0574
RRIRGRPPRLPRPRPRPNRLPRP | 0.104
RRIRQRPPRLPRPRPRPTINPRP | -0.362

Sequence | shrunken log2 fold change
RRIRYRPPRLPRPRPRPQVMPRP | -0.0105
RRIRVRPPRLPRPRPRPPDIPRP | 0.248
RRIRGRPPRLPRPRPRPQKPPRP | 0.0894
RRIRTRPPRLPRPRPRPDRPPRP | 0.188
RRIRGRPPRLPRPRPRPTPPPRP | 1.06
RRIRPRPPRLPRPRPRPVEAPRP | 0.481
RRIRLRPPRLPRPRPRPLLRPRP | 0.196
RRIRMRPPRLPRPRPRPHTSPRP | 0.242
RRIRHRPPRLPRPRPRPMGYPRP | -0.134
RRIRMRPPRLPRPRPRPEDKPRP | 2.94
RRIRLRPPRLPRPRPRPAHDPRP | 0.189
RRIRIRPPRLPRPRPRPFVSPRP | -0.571
RRIRFRPPRLPRPRPRPRCHPRP | -0.0965
RRIRNRPPRLPRPRPRPMKQPRP | 0.0238
RRIRERPPRLPRPRPRPKTFPRP | 0.0567
RRIRTRPPRLPRPRPRPKPYPRP | -0.607
RRIRKRPPRLPRPRPRPWSKPRP | 0.00888
RRIRTRPPRLPRPRPRPNWKPRP | -0.0427
RRIRFRPPRLPRPRPRPEAVPRP | 0.323
RRIRPRPPRLPRPRPRPGRRPRP | 0.123
RRIRIRPPRLPRPRPRPQSMPRP | -0.138
RRIRWRPPRLPRPRPRPVGRPRP | 0.0962
RRIRLRPPRLPRPRPRPRMYPRP | -0.166

Sequence | shrunken log2 fold change
RRIRLRPPRLPRPRPRPHRLPRP | 0.166
RRIRCRPPRLPRPRPRPIDCPRP | -0.128
RRIRYRPPRLPRPRPRPPTMPRP | -0.352
RRIRKRPPRLPRPRPRPCGLPRP | 0.933
RRIRFRPPRLPRPRPRPRPHPRP | 0.355
RRIRNRPPRLPRPRPRPLIAPRP | -0.305
RRIRMRPPRLPRPRPRPKEPPRP | -0.074
RRIRRRPPRLPRPRPRPFHEPRP | -0.195
RRIRPRPPRLPRPRPRPPSVPRP | 0.321
RRIRQRPPRLPRPRPRPNVSPRP | 0.00422
RRIRMRPPRLPRPRPRPKLKPRP | 2.65
RRIRGRPPRLPRPRPRPSHYPRP | -0.0921
RRIRRRPPRLPRPRPRPTRCPRP | 0.661
RRIRRRPPRLPRPRPRPTKVPRP | 0.118
RRIRIRPPRLPRPRPRPSIIPRP | -0.866
RRIRERPPRLPRPRPRPYCSPRP | -0.57
RRIRYRPPRLPRPRPRPPEIPRP | -0.0815
RRIRRRPPRLPRPRPRPTWEPRP | 0.0289
RRIRMRPPRLPRPRPRPVGHPRP | 0.193
RRIRFRPPRLPRPRPRPRKHPRP | 0.0878
RRIRRRPPRLPRPRPRPCCRPRP | 0.197
RRIRARPPRLPRPRPRPMPPPRP | 0.3
RRIRLRPPRLPRPRPRPVNCPRP | -0.0144

Sequence | shrunken log2 fold change
RRIRSRPPRLPRPRPRPMIDPRP | -0.249
RRIRGRPPRLPRPRPRPMHRPRP | 0.405
RRIRSRPPRLPRPRPRPDWRPRP | 0.132
RRIRGRPPRLPRPRPRPGSNPRP | 0.0237
RRIRERPPRLPRPRPRPIDSPRP | -0.0823
RRIRQRPPRLPRPRPRPCENPRP | 0.0237
RRIRHRPPRLPRPRPRPLFEPRP | -0.135
RRIRLRPPRLPRPRPRPRGQPRP | 0.533
RRIRPRPPRLPRPRPRPDHWPRP | 0.0752
RRIRCRPPRLPRPRPRPRNVPRP | -0.156
RRIRMRPPRLPRPRPRPMLLPRP | 0.0485
RRIRNRPPRLPRPRPRPEKLPRP | -0.00804
RRIRYRPPRLPRPRPRPVKVPRP | 0.0182
RRIRARPPRLPRPRPRPVYYPRP | -0.518
RRIRARPPRLPRPRPRPYATPRP | 0.0217
RRIRMRPPRLPRPRPRPPASPRP | 1.65
RRIRDRPPRLPRPRPRPKFQPRP | 0.00463
RRIRTRPPRLPRPRPRPNNGPRP | -0.602
RRIRPRPPRLPRPRPRPPAGPRP | 0.506
RRIRYRPPRLPRPRPRPSDFPRP | -1.03
RRIRWRPPRLPRPRPRPLGCPRP | 0.438
RRIRNRPPRLPRPRPRPKDPPRP | 0.0665
